Measurements: publication PMC2666446 (Journal of molecular biology, 2008)
Substitutions are numbered along the chain they refer to. Names and notes keep the numbering of the source. Like-named read-outs stand apart in the source and are kept apart here.

B1: 30-TT (dsDNA)
DNA 1: AACTGCCATGCACCAGTGTCAGCGTCGTAT
DNA 2: ATACGACGCTGACACTGGTGCTTGGCAGTT
B2: 90-bp homoduplex (dsDNA)
DNA 1: CGCAGTGCTAAGACGTACCATGCAACCGTAGATTCTAACTGCCAGGCACCAGTGTCAGCGTCGTATAGTCGTGTATAGATCGTTATCTGC
DNA 2: GCAGATAACGATCTATACACGACTATACGACGCTGACACTGGTGCCTGGCAGTTAGAATCTACGGTTGCATGGTACGTCTTAGCACTGCG
B3: E. coli His6-MutS (natural protein, UniProt P23909 1-853, looked up)
chain: MSAIENFDAHTPMMQQYLRLKAQHPEILLFYRMGDFYELFYDDAKRASQLLDISLTKRGASAGEPIPMAGIPYHAVENYLAKLVNQGESVAICEQIGDPATSKGPVERKVVRIVTPGTISDEALLQERQDNLLAAIWQDSKGFGYATLDISSGRFRLSEPADRETMAAELQRTNPAELLYAEDFAEMSLIEGRRGLRRRPLWEFEIDTARQQLNLQFGTRDLVGFGVENAPRGLCAAGCLLQYAKDTQRTTLPHIRSITMEREQDSIIMDAATRRNLEITQNLAGGAENTLASVLDCTVTPMGSRMLKRWLHMPVRDTRVLLERQQTIGALQDFTAGLQPVLRQVGDLERILARLALRTARPRDLARMRHAFQQLPELRAQLETVDSAPVQALREKMGEFAELRDLLERAIIDTPPVLVRDGGVIASGYNEELDEWRALADGATDYLERLEVRERERTGLDTLKVGFNAVHGYYIQISRGQSHLAPINYMRRQTLKNAERYIIPELKEYEDKVLTSKGKALALEKQLYEELFDLLLPHLEALQQSASALAELDVLVNLAERAYTLNYTCPTFIDKPGIRITEGRHPVVEQVLNEPFIANPLNLSPQRRMLIITGPNMGGKSTYMRQTALIALMAYIGSYVPAQKVEIGPIDRIFTRVGAADDLASGRSTFMVEMTETANILHNATEYSLVLMDEIGRGTSTYDGLSLAWACAENLANKIKALTLFATHYFELTQLPEKMEGVANVHLDALEHGDTIAFMHSVQDGAASKSYGLAVAALAGVPKEVIKRARQKLRELESISPNAAATQVDGTQMSLLSVPEETSPAVEALENLDPDSLTPRQALEWIYRLKSLV
B4: E. coli His6-mutS-A842E (natural protein, UniProt P23909 1-853, looked up)
chain: B3 chain with A842E
B5: 30-GT (dsDNA)
DNA 1: B1 DNA 1 with T9G
DNA 2: B1 DNA 2
B6: 30-GG (dsDNA)
DNA 1: B1 DNA 1 with T9G
DNA 2: B1 DNA 2 with T22G
B7: 30-AA (dsDNA)
DNA 1: B1 DNA 1 with T9A
DNA 2: B1 DNA 2 with T22A
B8: 30-AG (dsDNA)
DNA 1: B1 DNA 1 with T9A
DNA 2: B1 DNA 2 with T22G
B9: 30-CT (dsDNA)
DNA 1: B1 DNA 1 with T9C
DNA 2: B1 DNA 2
B10: 30-TG (dsDNA)
DNA 1: B1 DNA 1
DNA 2: B1 DNA 2 with T22G
B11: 30-2ΔT (dsDNA)
DNA 1: B1 DNA 1 with T9G
DNA 2: ATACGACGCTGACACTGGTGCCTTTGGCAGTT
B12: 30-GC (30-bp homoduplex) (dsDNA)
DNA 1: B1 DNA 1 with T9G
DNA 2: B1 DNA 2 with T22C
B13: 30-AC (dsDNA)
DNA 1: B1 DNA 1 with T9A
DNA 2: B1 DNA 2 with T22C
B14: 30-CC (dsDNA)
DNA 1: B1 DNA 1 with T9C
DNA 2: B1 DNA 2 with T22C

Legend:
[1] = biological target: T1, MutS (Escherichia coli, UniProt P23909 1-853); assay: FRET equilibrium titration
T1 sequence: B3 chain

[2] = biological target: T1, MutS; assay: FRET equilibrium titration; remark: listed apart in the source
[3] = biological target: T1, MutS; assay: competition
[4] = biological target: T1, MutS; assay: competition; remark: listed apart in the source
[5] = biological target: the molecule itself; assay: other fluorescence titration
[6] = biological target: the molecule itself; assay: other fluorescence titration; remark: listed apart in the source
[7] = biological target: T1, MutS; assay: FRET equilibrium titration; remark: listed apart in the source
[8] = biological target: T1, MutS; assay: stopped-flow FRET kinetics
[9] = biological target: T1, MutS; assay: stopped-flow FRET kinetics; remark: listed apart in the source
[10] = biological target: T1, MutS; assay: FRET equilibrium titration; remark: listed apart in the source
[11] = biological target: T1, MutS; assay: stopped-flow FRET kinetics; remark: listed apart in the source
[12] = biological target: T1, MutS; assay: stopped-flow FRET kinetics; remark: listed apart in the source
[13] = biological target: T1, MutS; assay: competition; remark: listed apart in the source

Binder | Kd [1] [nM] | Kd [2] [nM] | further results
B1 | 291 | 321 | –
B2 | – | – | IC50 [3]: ~3.6 µM; Kd [4]: ~3.7 µM
B3 | – | – | stoichiometry N [5]: 3.7 MutS monomers per heteroduplex; stoichiometry N [6]: 3.58 MutS monomers per heteroduplex
B4 | – | – | stoichiometry N [5]: 2.21 MutS monomers per heteroduplex; stoichiometry N [6]: 2.27 MutS monomers per heteroduplex
B5 | 74 | – | Kd [7]: ~176 nM; Kd [8]: 91 nM; Kd [9]: 26 nM; Kd [10]: 69 nM
B6 | 168 | 137 | –
B7 | 214 | 108 | Kd [11]: 63 nM; Kd [12]: 153 nM
B8 | 319 | 251 | –
B9 | 324 | 331 | –
AACTGCCAGGCACCAGTGTCAGCGTCGTAT (ssDNA) [30-ssDNA] | – | – | IC50 [3]: ~6.2 µM; Kd [4]: 6.5 µM
B10 | 80 | 70 | –
B11 | 89 | 74 | –
B12 | – | – | Kd [4]: 23.1 µM; Kd [13]: 30.5 µM
B13 | 154 | 97 | –
B14 | 300 | 410 | –
